US20220363763A1 (ABL BIO, published 2022)

B1: NLAG3-HDB169-T99 (antibody, human IgG1, V domains shown)
VH: QVQLVQSGAEVKKPGSSVKVSCKASGGTFSSYAISWVRQAPGQGLEWMGGIIPIFGTANYAQKFQGRVTITADESTSTAYMELSSLRSEDTAVYYCVRDLQDWNYGGAAYWGQGTLVTVSS
VL: VIWMTQSPSSLSASVGDSVTITCQASRDISNSLSWHQQKPGKAPKLLIYAASSLQSGVPSRFSGSGSGTDFTLTISSLQPEDFATYYCQQTKSFPLTFGGGTKVEIKR
notes: Short label tied by its unique suffix
B2: 25F7 (antibody, V domains shown)
VH: QVQLQQWGAGLLKPSETLSLTCAVYGGSFSDYYWNWIRQPPGKGLEWIGEINHNGNTNSNPSLKSRVTLSLDTSKNQFSLKLRSVTAADTAVYYCAFGYSDYEYNWFDPWGQGTLVTVSS
VL: EIVLTQSPATLSLSPGERATLSCRASQSISSYLAWYQQKPGQAPRLLIYDASNRATGIPARFSGSGSGTDFTLTISSLEPEDFAVYYCQQRSNWPLTFGQGTNLEIK

Experiments:
[1] = molecular target: T1, recombinant his-tag human LAG3-ECD protein (human, UniProt P18627 23-450); assay: SPR Biacore T200, antibody captured by anti-human Fc, LAG3-ECD-his injected
T1 construct: extracellular domain; not shown: his tag
T1 sequence (looked up): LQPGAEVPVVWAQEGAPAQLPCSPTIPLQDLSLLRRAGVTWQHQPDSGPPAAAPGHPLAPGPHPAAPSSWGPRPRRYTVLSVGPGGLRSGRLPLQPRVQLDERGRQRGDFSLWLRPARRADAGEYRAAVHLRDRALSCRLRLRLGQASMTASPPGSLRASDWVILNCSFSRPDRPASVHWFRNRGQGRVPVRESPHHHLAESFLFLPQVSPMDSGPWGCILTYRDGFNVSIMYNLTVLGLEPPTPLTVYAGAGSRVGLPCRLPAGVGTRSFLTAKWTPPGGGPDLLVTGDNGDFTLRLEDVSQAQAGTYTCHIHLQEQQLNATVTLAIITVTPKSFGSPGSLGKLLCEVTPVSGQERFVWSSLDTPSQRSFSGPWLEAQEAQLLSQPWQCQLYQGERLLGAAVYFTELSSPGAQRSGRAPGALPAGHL
Method in brief: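 Antibodies captured on chip-coated anti-human Fc; his-tag human LAG3-ECD injected at serial concentrations of 0-4 nM, flow 30 μl/min. Dissociation phase 900 s or 550 s.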

[2] = molecular target: T2, recombinant human LAG-3-ECD-human IgG1 fusion protein (human, UniProt P18627 23-450, biotin-labeled in the MHC class II blocking assays); assay: ELISA on coated human LAG3 ECD-Fc; EC50 table has no unit, x axis Ab(nM)
T2 construct: extracellular domain; also called LAG-3-huFc; LAG-3-ECD-huFc; not shown: human IgG1 Fc
T2 sequence (looked up): T1 sequence (looked up)
Description: (§1) To evaluate the capability of the anti-LAG-3 antibodies to bind to human, rat, and mouse LAG3 the antibodies identified in Example 2.1 were evaluated for their binding property through ELISA. The human, rat and mouse LAG3 ECD-Fc protein were coated to ELISA plate at 1 μg/ml with 100 μl/well. Antibodies from Example 1 were serially diluted with ELISA diluent buffer. […] The resulting plates were washed and then labeled with anti-human IgG(Fab)-HRP antibody. The S31 can only bind to human LAG3. The S27 and T99 can bind to human LAG3 and rat/mouse LAG3 with lower potency. The S119 antibody can bind to human, rat and mouse LAG3 at high potency (FIGS. 22A-22D).

[3] = molecular target: T2, recombinant human LAG-3-ECD-human IgG1 …; assay: flow cytometry; blocking of biotin-LAG-3-ECD-huFc binding to MHC class II on Raji cells
Description: To evaluate the ability of anti-LAG-3 antibodies to block the binding of sLAG-3 to MHC class II receptor, an in vitro binding assay was designed using biotin-labeled LAG-3-ECD-huFc fusion proteins and Raji cells expressing MHC class II receptor. Antibodies from Example 1 were serially diluted from 20 μg/mL with FACS buffer and pre-incubated with 6 μg/mL of biotin-LAG-3-ECD-huFcc for 30 min at room temperature. The antibody mixture was then added to FcR blocked Raji cells and incubated for 30 min on ice. Cells were then washed with FACS buffer and subsequently stained with streptavidin PE for 30 min on ice and subsequently washed once with FACS buffer. Labeled cells were evaluated for fluorescence intensity by flow cytometry in a BD FACSCalibur™.

rat LAG3 ECD-Fc protein = molecular target: T3, rat LAG3 ECD-Fc protein (rat, UniProt Q5BK54 24-442); assay: ELISA on coated rat LAG3 ECD-Fc; EC50 table has no unit, x axis Ab(nM); curve without upper plateau
T3 construct: extracellular domain; not shown: Fc part
T3 sequence (looked up): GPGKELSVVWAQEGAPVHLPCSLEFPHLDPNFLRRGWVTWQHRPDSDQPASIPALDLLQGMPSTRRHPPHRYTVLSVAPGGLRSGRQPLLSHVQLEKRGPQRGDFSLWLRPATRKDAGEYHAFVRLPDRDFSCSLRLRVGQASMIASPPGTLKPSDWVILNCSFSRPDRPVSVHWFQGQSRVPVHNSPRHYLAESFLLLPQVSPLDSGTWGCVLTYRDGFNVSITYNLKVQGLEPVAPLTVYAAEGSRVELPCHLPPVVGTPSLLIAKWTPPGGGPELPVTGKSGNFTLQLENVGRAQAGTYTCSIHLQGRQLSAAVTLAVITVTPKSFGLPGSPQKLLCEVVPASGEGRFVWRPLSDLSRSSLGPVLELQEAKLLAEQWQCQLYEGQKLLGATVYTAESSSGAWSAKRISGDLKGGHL
Description: as §1

[4] = molecular target: T4, mouse LAG3 ECD-Fc protein (mouse, UniProt Q61790 24-442); assay: ELISA on coated mouse LAG3 ECD-Fc; EC50 table has no unit, x axis Ab(nM); curve without upper plateau
T4 construct: extracellular domain; not shown: Fc part
T4 sequence (looked up): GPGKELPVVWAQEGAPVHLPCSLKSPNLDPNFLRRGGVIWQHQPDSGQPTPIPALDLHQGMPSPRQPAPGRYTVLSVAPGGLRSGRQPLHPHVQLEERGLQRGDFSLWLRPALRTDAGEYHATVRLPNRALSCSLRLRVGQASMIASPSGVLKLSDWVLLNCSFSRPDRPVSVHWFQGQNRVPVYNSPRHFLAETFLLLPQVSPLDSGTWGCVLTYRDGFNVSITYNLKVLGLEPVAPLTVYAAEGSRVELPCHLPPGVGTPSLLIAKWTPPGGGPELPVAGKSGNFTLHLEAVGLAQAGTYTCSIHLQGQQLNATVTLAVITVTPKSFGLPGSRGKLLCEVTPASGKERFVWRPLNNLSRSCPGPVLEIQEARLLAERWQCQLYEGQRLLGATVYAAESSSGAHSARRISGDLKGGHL
Description: as §1

Bio-LAG3 = molecular target: T5, Bio-LAG3 (human, UniProt P18627 23-450, limits assumed, biotinylated (sites not given)); assay: ELISA, Bio-LAG3 held on streptavidin-coated plate
T5 construct: also called human LAG3 protein
T5 sequence (looked up): T1 sequence (looked up)
Description: The streptavidin was coated to an ELISA plate at 2 μg/ml with 100 μl/well. 100 μl of Bio-LAG3 at 1.0 μg/ml was subsequently incubated with streptavidin at RT for 1 hr. B3807, along with a positive control 25F7 and a negative control IgG, were serially diluted with ELISA diluent buffer. To assess binding, the antibodies at various concentrations were added to LAG3 protein-coated plate for 1.5 hr RT. The resulting plates were washed and then labeled with anti-human IgG(Fab)-HRP antibody.

human LAG3 on cells [5] = molecular target: T6, human LAG3 on cells (human, UniProt P18627 23-525); assay: flow cytometry (MFI) on activated human PBMC (CD4+ cells), lower panel
T6 construct: whole, on cells; also called Jurkat-LAG3
T6 sequence (looked up): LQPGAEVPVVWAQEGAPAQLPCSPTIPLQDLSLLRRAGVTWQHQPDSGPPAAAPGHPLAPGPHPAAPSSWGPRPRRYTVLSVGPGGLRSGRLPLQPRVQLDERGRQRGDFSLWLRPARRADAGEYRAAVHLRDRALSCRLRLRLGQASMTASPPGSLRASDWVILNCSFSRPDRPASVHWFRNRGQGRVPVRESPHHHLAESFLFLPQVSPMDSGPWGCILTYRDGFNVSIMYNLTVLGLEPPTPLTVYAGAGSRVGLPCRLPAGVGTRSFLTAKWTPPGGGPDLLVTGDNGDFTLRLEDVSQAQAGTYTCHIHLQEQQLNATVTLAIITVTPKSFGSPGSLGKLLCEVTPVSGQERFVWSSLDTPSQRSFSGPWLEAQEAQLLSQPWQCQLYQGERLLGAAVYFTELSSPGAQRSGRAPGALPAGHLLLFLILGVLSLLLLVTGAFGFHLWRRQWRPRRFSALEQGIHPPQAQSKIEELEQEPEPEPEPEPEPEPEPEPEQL
Description: (§2) To further confirm that B3807 could bind to cell-derived human LAG3, both inducible human LAG3 expressed Jurkat cells and activated PBMCs were used to test the binding capability of B3807. In brief, Jurkat cells were resuspended in FACS buffer. B3807, 25F7 and isotype control were 3-fold serially diluted in FACS buffer with a dose ranging from 20 nM to 9 pM. The serially diluted antibodies were added to the cell suspension and incubated for 30 minutes on ice. Then after removal of unbound antibodies, cells were stained with anti-human IgG conjugated with Alexa Fluor 633 (Thermo, A21091). Fluorescence measurement was acquired on FACSCelesta flow cytometer and analyzed in Flowjo to determine the mean fluorescence intensities (MFI). To test the antibodies' ability of binding to native human LAG3, PBMCs from health donor were stimulated with anti-CD3 (BD, 555336) and anti-CD28 (BD, 555725) both at a concentration of 1 μg/ml. Following 3 days' stimulation, cells were harvested and incubated with anti-LAG3 antibodies for 30 mins on ice. The cells were stained with anti-human CD4 and anti-human IgG. Analysis of antibodies binding to CD4+ cells were carried out on FACSCelesta flow cytometry.

human LAG3 on cells [6] = molecular target: T6, human LAG3 on cells; assay: flow cytometry (MFI) on human LAG3-expressing Jurkat cells, upper panel
Description: as §2

| Binder | Kd [1] | koff [1] | kon [1] | EC50 [2] | IC50 [3] | EC50 (rat LAG3 ECD-Fc protein) | EC50 [4] | EC50 (Bio-LAG3) | EC50 (human LAG3 on cells [5]) | EC50 (human LAG3 on cells [6]) |
| --- | --- | --- | --- | --- | --- | --- | --- | --- | --- | --- |
| B1 | 0.0224 nM | 0.00017 s⁻¹ | 7.62e+06 M⁻¹ s⁻¹ | 0.0638 nM | 23.7 nM | 20.9 nM | 16.9 nM |  |  |  |
| B2 |  |  |  |  |  |  |  | 0.22 nM | 0.52 nM | 0.57 nM |
